B1: CCDC89 (parent)
chain: LNAELEEKMMQEAEKLKAQGEYSR

Variants of: B1
Assay: protein stability index of a GFP-peptide fusion (GPS, HEK-293T) (PSI 1-6); higher = more stable
Settings: c terminus: a fixed tail appended
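Also: lentivirally expressed fusions sorted by FACS into six bins by GFP to DsRed ratio, PSI derived from sequencing read proportions per bin multiplied by bin number.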

Row | Variant | protein stability index
1 | LNAELEEKMMQYAEKLKAQGEYSR | 3.47
2 | LNAELEEKMMQPAEKLKAQGEYSR | 5.4
3 | LNAELEEKMMQAAEKLKAQGEYSR | 4.42
4 | LNAELEEKMMQLAEKLKAQGEYSR | 2.92
5 | LNAELEEKMMQKAEKLKAQGEYSR | 4.67
6 | LNAELEEKMMQEAENLKAQGEYSR | 4.71
7 | LNAELEEKMMQEAEMLKAQGEYSR | 5.82
8 | LNAELEEKMMQEAEDLKAQGEYSR | 5.58
9 | LNAELEEKMMQEAEWLKAQGEYSR | 4.41
10 | LNAELEEKMMQEAECLKAQGEYSR | 5.03
11 | LNAELEEKMMQEAEALKAQGEYSR | 5.41
12 | LNAELEEKMMQEAEQLKAQGEYSR | 5.41
13 | LNAELEEKMMQEAEVLKAQGEYSR | 4.78
14 | LNAELEEKMMQEAEGLKAQGEYSR | 5.26
15 | LNAELEEKMMQEAEYLKAQGEYSR | 4.3
16 | LNAELEEKMMQEAERLKAQGEYSR | 4.84
17 | LNAELEEKMMQEAELLKAQGEYSR | 4.99
18 | LNAELEEKMMQEAEPLKAQGEYSR | 5.38
19 | LNAELEEKMMQEAEELKAQGEYSR | 5.06
20 | LNAELEEKMMQEAEHLKAQGEYSR | 5.2
21 | LNAELEEKMMQEAESLKAQGEYSR | 4.38
22 | LNAELEEKMMQEAEKLKCQGEYSR | 4.79
23 | LNAELEEKMMQEAEKLKDQGEYSR | 4.95
24 | LNAELEEKMMQEAEKLKNQGEYSR | 5.09

Row | Variant | protein stability index
25 | LNAELEEKMMQEAEKLKTQGEYSR | 5.07
26 | LNAELEEKMMQEAEKLKRQGEYSR | 4.31
27 | LNAELEEKMMQEAEKLKMQGEYSR | 4.71
28 | LNAELEEKMMQEAEKLKIQGEYSR | 4.32
29 | LNAELEEKMMQEAEKLKQQGEYSR | 5.3
30 | LNAELEEKMMQEAEKLKPQGEYSR | 4.7
31 | LNAELEEKMMQEAEKLKGQGEYSR | 4.43
32 | LNAELEEKMMQEAEKLKWQGEYSR | 4.15
33 | LNAELEEKMMQEAEKLKLQGEYSR | 3.87
34 | LNAELEEKMMQEAEKLKFQGEYSR | 4.28
35 | LNAELEEKMMQEAEKLKHQGEYSR | 4.15
36 | LNAELEEKMMQEAEKLKAQHEYSR | 4.35
37 | LNAELEEKMMQEAEKLKAQCEYSR | 2.96
38 | LNAELEEKMMQEAEKLKAQLEYSR | 2.99
39 | LNAELEEKMMQEAEKLKAQPEYSR | 5.43
40 | LNAELEEKMMQEAEKLKAQREYSR | 4.85
41 | LNAELEEKMMQEAEKLKAQYEYSR | 4.44
42 | LNAELEEKMMQEAEKLKAQAEYSR | 4.98
43 | LNAELEEKMMQEAEKLKAQNEYSR | 4.99
44 | LNAELEEKMMQEAEKLKAQEEYSR | 4.82
45 | LNAELEEKMMQEAEKLKAQSEYSR | 4.91
46 | LNAELEEKMMQEAEKLKAQKEYSR | 5.22
47 | LNAELEEKMMQEAEKLKAQIEYSR | 3.68
48 | LNAELEEKMMQEAEKLKAQVEYSR | 5.31

Row | Variant | protein stability index
49 | LNAELEEKMMQEAEKCKAQGEYSR | 5.36
50 | LNAELEEKMMQEAEKTKAQGEYSR | 5.14
51 | LNAELEEKMMQEAEKVKAQGEYSR | 4.97
52 | LNAELEEKMMQEAEKQKAQGEYSR | 4.65
53 | LNAELEEKMMQEAEKAKAQGEYSR | 5.1
54 | LNAELEEKMMQEAEKNKAQGEYSR | 5.17
55 | LNAELEEKMMQEAEKKKAQGEYSR | 4.85
56 | LNAELEEKMMQEAEKDKAQGEYSR | 5.77
57 | LNAELEEKMMQEAEKYKAQGEYSR | 4.37
58 | LNAELEEKMMQEAEKIKAQGEYSR | 5.82
59 | LNAELEEKMMQEAEKWKAQGEYSR | 4.6
60 | LNAELEEKMMQEAEKSKAQGEYSR | 5.76
61 | LNAELEEKMMQEAEKPKAQGEYSR | 5.68
62 | LNAELEEKMMQEAEKEKAQGEYSR | 5.79
63 | LNAELEEKMMQEAEKGKAQGEYSR | 5.09
64 | LNAELEEKMMFEAEKLKAQGEYSR | 4.14
65 | LNAELEEKMMSEAEKLKAQGEYSR | 5.49
66 | LNAELEEKMMMEAEKLKAQGEYSR | 4.18
67 | LNAELEEKMMTEAEKLKAQGEYSR | 5.67
68 | LNAELEEKMMYEAEKLKAQGEYSR | 4.86
69 | LNAELEEKMMNEAEKLKAQGEYSR | 5.04
70 | LNAELEEKMMGEAEKLKAQGEYSR | 5.18
71 | LNAELEEKMMVEAEKLKAQGEYSR | 5.09
72 | LNAELEEKMMPEAEKLKAQGEYSR | 4.75

Row | Variant | protein stability index
73 | LNAELEEKMMIEAEKLKAQGEYSR | 4.96
74 | LNAELEEKMMKEAEKLKAQGEYSR | 4.94
75 | LNAELEEKMMWEAEKLKAQGEYSR | 4.22
76 | LNAELEEKMMDEAEKLKAQGEYSR | 5.7
77 | LNAELEEKMMEEAEKLKAQGEYSR | 5.55
78 | LNAELEEKMMCEAEKLKAQGEYSR | 5.38
79 | LNAELEEKMMLEAEKLKAQGEYSR | 3.99
80 | LNAELEEKMMHEAEKLKAQGEYSR | 4.84
81 | LNAELEEKMMREAEKLKAQGEYSR | 4.76
82 | LNAELEEKMMQEAEKLVAQGEYSR | 4.4
83 | LNAELEEKMMQEAEKLGAQGEYSR | 4.93
84 | LNAELEEKMMQEAEKLDAQGEYSR | 5.47
85 | LNAELEEKMMQEAEKLYAQGEYSR | 4.43
86 | LNAELEEKMMQEAEKLHAQGEYSR | 3.87
87 | LNAELEEKMMQEAEKLQAQGEYSR | 5.22
88 | LNAELEEKMMQEAEKLPAQGEYSR | 5.65
89 | LNAELEEKMMQEAEKLCAQGEYSR | 4.02
90 | LNAELEEKMMQEAEKLLAQGEYSR | 4.54
91 | LNAELEEKMMQEAEKLIAQGEYSR | 4.72
92 | LNAELEEKMMQEAEKLFAQGEYSR | 4.3
93 | LNAELEEKMMQEAEKLWAQGEYSR | 3.79
94 | LNAELEEKMMQEAEKLRAQGEYSR | 4.41

— the supplement of paper PMC10567573
